These results are taken from publication PMC9529903, “Structural insights of the elongation factor EF-Tu complexes in protein translation of Mycobacterium tuberculosis” (Communications Biology, 2022).

In assay [1] the target is T1, EF-Tu (Mycobacterium tuberculosis, UniProt P9WNN1).
T1 construct: gene tuf; full-length
Kind of assay: biochemical. In kind it is binding.

For assay [2], the target named is EF-Ts (Escherichia coli) (UniProt P0A6P1). The following applies: cited from earlier work.
Assay [3] addresses T2, Mycobacterium tuberculosis elongation factor EF-Tu (Mycobacterium tuberculosis, UniProt P9WNN1 1-396).
T2 construct: also called Mtb EF-Tu
Kind of assay: ITC. The following applies: both partners purified.

Broadly, the Kd is the concentration at which binding is half-saturated. In general, stoichiometry N refers to a count of units in the complex or per binding partner.

T2 sequence (P9WNN1 whole entry): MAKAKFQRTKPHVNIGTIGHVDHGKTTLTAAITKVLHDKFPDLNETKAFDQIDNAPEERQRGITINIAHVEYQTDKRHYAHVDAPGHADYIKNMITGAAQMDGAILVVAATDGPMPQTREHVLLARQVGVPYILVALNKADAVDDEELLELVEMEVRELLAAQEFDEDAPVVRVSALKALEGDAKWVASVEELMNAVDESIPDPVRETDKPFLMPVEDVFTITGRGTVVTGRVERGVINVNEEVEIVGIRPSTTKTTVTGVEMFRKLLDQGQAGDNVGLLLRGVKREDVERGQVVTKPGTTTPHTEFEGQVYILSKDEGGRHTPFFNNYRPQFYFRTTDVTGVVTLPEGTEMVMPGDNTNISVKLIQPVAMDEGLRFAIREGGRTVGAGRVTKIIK
T1 sequence (P9WNN1 whole entry): as above
Chain of EF-Ts (Escherichia coli) (P0A6P1 2-283): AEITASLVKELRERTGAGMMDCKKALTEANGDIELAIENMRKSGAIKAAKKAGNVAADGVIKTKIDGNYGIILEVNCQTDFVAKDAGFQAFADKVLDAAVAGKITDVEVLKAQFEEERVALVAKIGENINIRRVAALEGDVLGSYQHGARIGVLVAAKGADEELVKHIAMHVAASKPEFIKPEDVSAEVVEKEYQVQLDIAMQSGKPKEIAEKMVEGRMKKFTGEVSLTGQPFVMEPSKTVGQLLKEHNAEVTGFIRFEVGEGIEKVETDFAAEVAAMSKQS

Turning to `C=CC(=O)Nc1cc(Nc2nccc(-c3cn(C)c4ccccc34)n2)c(OC)cc1N(C)CCN(C)C` [Osimertinib], the Kd in assay [1] is 207 µM.

EF-Tu (from UniProt P0CE47): in assay [2], the Kd is 0.002 µM.

B1: Mycobacterium tuberculosis elongation factor EF-Ts (natural protein)
chain: MANFTAADVKRLRELTGAGMLACKNALAETDGDFDKAVEALRIKGAKDVGKRAERATAEGLVAAKDGALIELNCETDFVAKNAEFQTLADQVVAAAAAAKPADVDALKGASIGDKTVEQAIAELSAKIGEKLELRRVAIFDGTVEAYLHRRSADLPPAVGVLVEYRGDDAAAAHAVALQIAALRARYLSRDDVPEDIVASERRIAEETARAEGKPEQALPKIVEGRLNGFFKDAVLLEQASVSDNKKTVKALLDVAGVTVTRFVRFEVGQA
notes: also called Mtb EF-Ts
For B1, in assay [3], the Kd was around 1.36 µM and the “stoichiometry N” value was determined as 1.
